Experimental data taken from US7807396B2, “Insulin degrading enzyme assays for treatment of alzheimer's disease” (University of Kentucky Research Foundation, priority 2000, dated 2010).

Biological target: T1, β-endorphin (Homo sapiens, UniProt P01189)
T1 construct: Human β-endorphin1-31; purchased National Institute on Drug Abuse drug supply system
T1 sequence (P01189 237-267): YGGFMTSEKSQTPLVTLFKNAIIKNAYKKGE
Test: Insulysin activity determination, disappearance of β-endorphin by HPLC
Format: biochemical
Conditions: 30 μM β-endorphin, 37° C.
Procedure: Materials. […] Solutions were prepared by dissolving the peptide in dimethylsulfoxide (DMSO) to give a stock concentration of 200 μM. The peptide stock was lyophilized and stored at −80° C. until use. The aggregation state of Aβ peptide stock solutions was checked by electron microscopy (Ray et al. (2000) Brain Res 853:344-351) and found to be predominantly, if not exclusively, monomeric. For the in vitro reactions with insulysin, a final concentration of 25 μM Aβ1-40 was obtained after bringing the lyophilized peptide into solution with double distilled water. […] Human β-endorphin1-31, obtained from the National Institute on Drug Abuse drug supply system, was dissolved in water to give a stock solution of 300 μM. Trifluoroacetic acid (Sigma Biochemicals, St. Louis, Mo.) was diluted into water to produce a 5% working solution.
Insulysin activity was assayed by measuring the disappearance of β-endorphin by isocratic reverse phase HPLC (Safavi et al. (1996) Biochemistry 1996 35:14318-14325). A 100 μl reaction mixture containing 40 mM potassium phosphate buffer, pH 7.2, 30 μM β-endorphin, and enzyme was incubated for 15 minutes at 37° C. […] The β-endorphin peak was detected by absorbance at 214 nm using a Waters 484 detector. The reaction was quantitated by measuring the decrease in the β-endorphin peak area.

B1: enzyme purified from a thymoma cell line, EL-4: insulysin enzyme purified from a thymoma cell line, EL-4, used for comparison of specific activity (protein, UniProt Q9JHR7 1-1019, looked up)
Insulin-degrading enzyme: MRNGLVWLLHPALPGTLRSILGARPPPAKRLCGFPKQTYSTMSNPAIQRIEDQIVKSPEDKREYRGLELANGIKVLLISDPTTDKSSAALDVHIGSLSDPPNIPGLSHFCEHMLFLGTKKYPKENEYSQFLSEHAGSSNAFTSGEHTNYYFDVSHEHLEGALDRFAQFFLCPLLDASCKDREVNAVDSEHEKNVMNDAWRLFQLEKATGNPKHPFSKFGTGNKYTLETRPNQEGIDVREELLKFHSTYYSSNLMAICVLGRESLDDLTNLVVKLFSEVENKNVPLPEFPEHPFQEEHLRQLYKIVPIKDIRNLYVTFPIPDLQQYYKSNPGYYLGHLIGHEGPGSLLSELKSKGWVNTLVGGQKEGARGFMFFIINVDLTEEGLLHVEDIILHMFQYIQKLRAEGPQEWVFQECKDLNAVAFRFKDKERPRGYTSKIAGKLHYYPLNGVLTAEYLLEEFRPDLIDMVLDKLRPENVRVAIVSKSFEGKTDRTEQWYGTQYKQEAIPEDVIQKWQNADLNGKFKLPTKNEFIPTNFEILSLEKDATPYPALIKDTAMSKLWFKQDDKFFLPKACLNFEFFSPFAYVDPLHCNMAYLYLELLKDSLNEYAYAAELAGLSYDLQNTIYGMYLSVKRYNDKQPILLKKITEKMATFEIDKKRFEIIKEAYMRSLNNFRAEQPHQHAMYYLRLLMTEVAWTKDELKEALDDVTLPRLKAFIPQLLSRLHIEALLHGNITKQAALGVMQMVEDTLIEHAHTKPLLPSQLVRYREVQLPDRGWFVYQQRNEVHNNCGIEIYYQTDMQSTSENMFLELFCQIISEPCFNTLRTKEQLGYIVFSGPRRANGIQGLRFIIQSEKPPHYLESRVEAFLITMEKAIEDMTEEAFQKHIQALAIRRLDKPKKLSAECAKYWGEIISQQYNYDRDNIEVAYLKTLTKDDIIRFYQEMLAVDAPRRHKVSVHVLAREMDSCPVVGEFPSQNDINLSEAPPLPQPEVIHNMTEFKRGLPLFPLVKPHINFMAAKL
- specific activity: 3.3 μmols/min/mg
